Columns and labels:
pUL71 = test: Co-transfection localisation of VPS4A-FLAG variants with pUL71, COS-7 cells; format: cell-based, HCMV; conditions: COS-7, co-transfection
Text: Human VPS4A-FLAG, C-terminally fused with the FLAG-tag epitope, was expressed from expression vector pBJ5-Vps4Flag (gift from A. Calistri, University of Padova, Italy). Cloning of this vector is described in detail in [100]. The VPS4-FLAGΔMIT variant, comprising VPS4A residues 119–437, was generated from pBJ5-Vps4Flag using primers bex_VPS4aa119-437 and Flag+Stop_rev. Point mutant VPS4A-FLAG-V13D was amplified using primers Vps4A-V13D_for and Flag+Stop_rev. Variant VPS4-FLAG-L64D was generated by fusion PCR where primers Vps4_for and Vps4A-L64D_rev generated a fragment that was used as forward primer in a second PCR together with primer Flag+Stop_rev to generate full-length VPS4A. All VPS4A variants were cloned using restriction enzymes into backbone vector pEF1/Myc-His C.
Intracellular localisation studies after transient expression were performed in COS-7 cells that were seeded with 3.3×10^4 cells per well on glass coverslips in a 24-well plate. The next day, cells were transfected with the respective DNAs by using Lipofectamine LTX (Invitrogen) according to the manufacturer’s protocol. Between 20 to 24 hours post-transfection, cells were fixed with 4% (v/v) paraformaldehyde (PFA) in PBS for 10 min at 4°C and prepared for localisation analysis by using indirect immunofluorescence staining.

VPS4A-FLAG [1] = test: Anti-FLAG co-immunoprecipitation from co-transfected HEK293FT cells; format: cell-based, human; conditions: 48 h post-transfection, immunoblot
Text: (§1) All eukaryotic expression plasmids for pUL71 and pUL71 homologues were generated in the backbone of pEF1/Myc-His C expression vector (Invitrogen) by cloning using restriction enzymes. The open reading frame (ORF) of full-length UL71 was amplified from the HCMV wild-type BAC TB40-BAC4 using the primers ex_71_for and ex_71_rev and was the basis for all further UL71 mutants. C-terminally truncated variants UL71_1–326, UL71_1–320 and UL71_1–314 were generated using primers ex_71_for and respective reverse primers UL71_1–326_rev, UL71_1–320_rev and UL71_1–314_rev. Point mutants PPAA (P315A+P318A), V317D, P315A and P318A of the vMIM2 of pUL71 were generated by fusion PCR. For the example of the PPAA mutant, a first fragment UL71_1-326-PPAA was amplified with the primers ex_71_for and UL71 _1–326_P315A/P318A_rev. A second fragment UL71_320–361 was amplified by using primers UL71_1–361_P315A/P318A-for and ex_71_rev. The final PCR product UL71-PPAA was amplified by using fragment UL71_1-326-PPAA as template and ex_71_for and fragment UL71_320–361 as primers. UL71-V317D, UL71-P315A and UL71-P318A were generated similarly manner using the primers UL71 _1–326_V317D_rev, UL71 _1–326_P315A_rev and UL71 _1–326_P318A_rev, respectively, to generate the first fragment. […]

VPS4A-FLAG [2] = test: Co-transfection localisation, immunofluorescence, COS-7 cells; format: cell-based, human; conditions: COS-7, 20–24 h post-transfection
Text: as §1

Row | Molecule | association of VPS4A variant with pUL71 at juxtanuclear compartments (pUL71) | co-precipitation by VPS4A-FLAG (VPS4A-FLAG [1]) | recruitment of VPS4A-FLAG to juxtanuclear compartments (VPS4A-FLAG [2])
1 | VPS4A-FLAG-V13D: FLAG-tagged VPS4A with V13D substitution that prevents binding to MIM2 (protein, UniProt Q9UN37 1-437, looked up, variant V13D, FLAG tag) Vacuolar protein …: MTTSTLQKAIDLDTKATEEDKAKNYEEALRLYQHAVEYFLHAIKYEAHSDKAKESIRAKCVQYLDRAEKLKDYLRSKEKHGKKPVKENQSEGKGSDSDSEGDNPEKKKLQEQLMGAVVMEKPNIRWNDVAGLEGAKEALKEAVILPIKFPHLFTGKRTPWRGILLFGPPGTGKSYLAKAVATEANNSTFFSVSSSDLMSKWLGESEKLVKNLFELARQHKPSIIFIDEVDSLCGSRNENESEAARRIKTEFLVQMQGVGNNNDGTLVLGATNIPWVLDSAIRRRFEKRIYIPLPEEAARAQMFRLHLGSTPHNLTDANIHELARKTEGYSGADISIIVRDSLMQPVRKVQSATHFKKVCGPSRTNPSMMIDDLLTPCSPGDPGAMEMTWMDVPGDKLLEPVVCMSDMLRSLATTRPTVNADDLLKVKKFSEDFGQES | prevents association |  | 
2 | VPS4A(L64D)-FLAG: FLAG-tagged VPS4A with L64D substitution that prevents binding to MIM1 (protein, UniProt Q9UN37 1-437, looked up, variant L64D, FLAG tag) Vacuolar protein …: MTTSTLQKAIDLVTKATEEDKAKNYEEALRLYQHAVEYFLHAIKYEAHSDKAKESIRAKCVQYDDRAEKLKDYLRSKEKHGKKPVKENQSEGKGSDSDSEGDNPEKKKLQEQLMGAVVMEKPNIRWNDVAGLEGAKEALKEAVILPIKFPHLFTGKRTPWRGILLFGPPGTGKSYLAKAVATEANNSTFFSVSSSDLMSKWLGESEKLVKNLFELARQHKPSIIFIDEVDSLCGSRNENESEAARRIKTEFLVQMQGVGNNNDGTLVLGATNIPWVLDSAIRRRFEKRIYIPLPEEAARAQMFRLHLGSTPHNLTDANIHELARKTEGYSGADISIIVRDSLMQPVRKVQSATHFKKVCGPSRTNPSMMIDDLLTPCSPGDPGAMEMTWMDVPGDKLLEPVVCMSDMLRSLATTRPTVNADDLLKVKKFSEDFGQES | efficiently recruited by pUL71 |  | 
3 | HHV6 pUL44: HA-tagged pUL71 homologue from HHV6 (pU44) (protein, left off: HA, C-terminal, kept) MGNCFRRLSLFGQPTQAKYEMLCSSDDLETEELTYFLDMTYKDFGVYQNDIISHQKDTETMKTLLGLLPMYKKTKLRHTVMERCLSNCPNHVKDALCVELMKAEKILQTMDVVFMKTLIGEFSMCTDNLNQLLNKFATDQSTLSDVEKINSLIEIDGENSKRLLVELDPILHEETGLYQALPNVVTEAPSEKVKSIRVESEGESV |  | bind efficiently to co-transfected VPS4A-FLAG | it is recruited
4 | HSV-1 pUL51: HA-tagged pUL71 homologue from HSV-1 (pUL51) (protein, left off: HA, C-terminal, kept) MASLLGAICGWGARPEEQYEMIRAAVPPSEAEPRLQEALAVVNALLPAPITLDDALGSLDDTRRLVKARALARTYHACMVNLERLARHHPGFEAPTIDGAVAAHQDKMRRLADTCMATILQMYMSVGAADKSADVLVSQAIRSMAESDVVMEDVAIAERALGLSAFGVAGGTRSGGIGVTEAPSLGHPHTPPPEVTLAPAARNGDALPDPKPESCPRVSVPRPTASPTAPRPGPSRAAPCVLGQ |  | do not | not recruited to juxtanuclear membranes

— PMC11218997, “Human cytomegalovirus deploys molecular mimicry to recruit VPS4A to sites of virus assembly” (PLOS Pathogens, 2024)
